Test results as given in patent US20250043028A1 (Hoffmann-La Roche, published 2025).

Key:
[1] = target: T1, human MCSP expressed on tumor cells (Colo-38, WM266-4, MV-3) (human, UniProt Q6UVK1 30-2322); assay: FACS on Colo-38 cells, dose titration
T1 construct: whole, on cells; also called huMCSP; Melanoma-associated Chondroitin Sulfate Proteoglycan
Method: (§1) Binding of the different bispecific constructs to CD3 on Jurkat cells (ATCC #TIB-152), and the respective tumor antigen on target cells, was determined by FACS. Briefly, cells were harvested, counted and checked for viability. 0.15-0.2 million cells per well (in PBS containing 0.1% BSA; 90 μl) were plated in a round-bottom 96-well plate and incubated with the indicated concentration of the bispecific constructs and corresponding IgG controls (10 μl) for 30 min at 4° C. For a better comparison, all constructs and IgG controls were normalized to same molarity. […] Bound constructs were detected using a FACSCantoII (Software FACS Diva). The “(scFv)₂” molecule was detected using a FITC-conjugated anti-His antibody (Lucerna, #RHIS-45F-Z). […] Unless otherwise indicated, cells were fixed with 100 μl/well fixation buffer (BD #554655) for 15 min at 4° C. in the dark, centrifuged for 6 min at 400×g and kept in 200 μl/well PBS containing 0.1% BSA until the samples were measured with FACS CantoII. EC50 values were calculated using the GraphPad Prism software.
In another experiment, the purified “2+1 IgG scFab” bispecific construct (SEQ ID NOs 5, 17, 19) and the corresponding anti human MCSP IgG were analyzed by flow cytometry for dose-dependent binding to human MCSP on Colo-38 human melanoma cells, to determine whether the bispecific construct binds to MCSP via one or both of its “arms”.

HuFcγRIIIa-V158-K6H6 = target: T2, HuFcγRIIIa-V158-K6H6 (human, UniProt P08637 17-208); assay: SPR Biacore T100, 25 °C, kinetic fit, one concentration (1000 nM); receptor captured via anti-Penta His
T2 construct: Captured on an anti-Penta His antibody on a CM5 chip; also called human FcγRIIIa-V158; human FcγRIIIa; not shown: K6H6 tag
T2 sequence (P08637 17-208 F176V): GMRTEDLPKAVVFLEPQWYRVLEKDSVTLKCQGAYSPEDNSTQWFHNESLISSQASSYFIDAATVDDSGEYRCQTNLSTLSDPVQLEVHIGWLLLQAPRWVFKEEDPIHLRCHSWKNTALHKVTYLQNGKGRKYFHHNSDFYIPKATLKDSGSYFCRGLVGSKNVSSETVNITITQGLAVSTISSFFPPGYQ
Method: For analyzing interaction of different Fc-variants with human FcγRIIIa-V158 and murine FcγRIV direct coupling of around 6,500 resonance units (RU) of the anti-Penta His antibody (Qiagen) is performed on a CM5 chip at pH 5.0 using the standard amine coupling kit (Biacore, Freiburg/Germany). HuFcγRIIIa-V158-K6H6 and muFcγRIV-aviHis-biotin are captured for 60 s at 4 and 10 nM respectively.
Constructs with different Fc-mutations are passed through the flow cells for 120 s at a concentration of 1000 nM with a flow rate of 30 μl/min. The dissociation is monitored for 220 s. Bulk refractive index differences are corrected for by subtracting the response obtained in a reference flow cell. Here, the Fc-variants are flown over a surface with immobilized anti-Penta His antibody but on which HBS-EP has been injected rather than HuFcγRIIIa-V158-K6H6 or muFcγRIV-aviHis-biotin. Affinity for human FcγRIIIa-V158 and murine FcγRIV was determined for wild-type Fc using a concentration range from 500-4000 nM.
The steady state response was used to derive the dissociation constant KD by non-linear curve fitting of the Langmuir binding isotherm. Kinetic constants were derived using the Biacore T100 Evaluation Software (vAA, Biacore AB, Uppsala/Sweden), to fit rate equations for 1:1 Langmuir binding by numerical integration.

[2] = target: T3, human CEA expressed on tumor cells (LS-174T, MKN-45, MC38-huCEA) (human, UniProt P06731 35-685); assay: cell-based or functional assay
T3 sequence (looked up): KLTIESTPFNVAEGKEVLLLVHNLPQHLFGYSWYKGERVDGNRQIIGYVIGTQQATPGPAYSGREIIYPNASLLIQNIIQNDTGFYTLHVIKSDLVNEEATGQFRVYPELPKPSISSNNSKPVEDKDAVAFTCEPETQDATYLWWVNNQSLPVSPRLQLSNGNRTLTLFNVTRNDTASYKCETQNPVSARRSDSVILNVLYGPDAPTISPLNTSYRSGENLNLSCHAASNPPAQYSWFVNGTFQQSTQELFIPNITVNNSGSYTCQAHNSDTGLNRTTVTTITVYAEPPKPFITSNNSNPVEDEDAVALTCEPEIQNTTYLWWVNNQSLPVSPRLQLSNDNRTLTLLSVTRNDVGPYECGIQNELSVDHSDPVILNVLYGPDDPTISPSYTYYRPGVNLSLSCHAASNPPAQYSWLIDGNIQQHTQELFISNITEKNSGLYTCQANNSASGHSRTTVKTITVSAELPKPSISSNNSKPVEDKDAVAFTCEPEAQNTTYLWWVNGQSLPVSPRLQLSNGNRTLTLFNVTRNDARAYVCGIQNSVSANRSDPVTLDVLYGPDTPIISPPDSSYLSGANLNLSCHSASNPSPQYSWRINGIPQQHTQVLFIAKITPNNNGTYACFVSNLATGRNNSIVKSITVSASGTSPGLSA

[3] = target: T4, human CD3 expressed on Jurkat cells (human, UniProt P07766 23-207); assay: flow cytometry on Jurkat cells; CL/CH1 exchange; CD3 on Jurkat cells
T4 construct: CD3 as part of the T cell receptor complex on Jurkat cells; also called huCD3; human CD3 on cells
T4 sequence (P07766 23-207 limits assumed): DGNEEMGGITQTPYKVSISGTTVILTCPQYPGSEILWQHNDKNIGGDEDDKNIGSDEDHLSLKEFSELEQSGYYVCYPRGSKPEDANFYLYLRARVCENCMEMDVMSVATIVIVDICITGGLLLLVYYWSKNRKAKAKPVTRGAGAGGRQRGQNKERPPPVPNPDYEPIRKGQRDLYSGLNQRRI
Method: as §1
(§2) As a control, the equivalent maximum concentration of the corresponding IgGs and the background staining due to the labeled 2ndary antibody (goat anti-human FITC-conjugated AffiniPure F(ab′)₂ Fragment, Fcγ Fragment-specific, Jackson Immuno Research Lab #109-096-098) were assessed as well.

[4] = target: T3, human CEA expressed on tumor cells …; assay: flow cytometry on LS-174T cells; CL/CH1 exchange; CEA on LS-174T cells
Method: as §1, §2

[5] = target: T4, human CD3 expressed on Jurkat cells; assay: flow cytometry on Jurkat cells; VL/VH exchange; CD3 on Jurkat cells
Method: as §1, §2

[6] = target: T3, human CEA expressed on tumor cells …; assay: flow cytometry on LS-174T cells; VL/VH exchange; CEA on LS-174T cells
Method: as §1, §2

T1 sequence (Q6UVK1 30-2322): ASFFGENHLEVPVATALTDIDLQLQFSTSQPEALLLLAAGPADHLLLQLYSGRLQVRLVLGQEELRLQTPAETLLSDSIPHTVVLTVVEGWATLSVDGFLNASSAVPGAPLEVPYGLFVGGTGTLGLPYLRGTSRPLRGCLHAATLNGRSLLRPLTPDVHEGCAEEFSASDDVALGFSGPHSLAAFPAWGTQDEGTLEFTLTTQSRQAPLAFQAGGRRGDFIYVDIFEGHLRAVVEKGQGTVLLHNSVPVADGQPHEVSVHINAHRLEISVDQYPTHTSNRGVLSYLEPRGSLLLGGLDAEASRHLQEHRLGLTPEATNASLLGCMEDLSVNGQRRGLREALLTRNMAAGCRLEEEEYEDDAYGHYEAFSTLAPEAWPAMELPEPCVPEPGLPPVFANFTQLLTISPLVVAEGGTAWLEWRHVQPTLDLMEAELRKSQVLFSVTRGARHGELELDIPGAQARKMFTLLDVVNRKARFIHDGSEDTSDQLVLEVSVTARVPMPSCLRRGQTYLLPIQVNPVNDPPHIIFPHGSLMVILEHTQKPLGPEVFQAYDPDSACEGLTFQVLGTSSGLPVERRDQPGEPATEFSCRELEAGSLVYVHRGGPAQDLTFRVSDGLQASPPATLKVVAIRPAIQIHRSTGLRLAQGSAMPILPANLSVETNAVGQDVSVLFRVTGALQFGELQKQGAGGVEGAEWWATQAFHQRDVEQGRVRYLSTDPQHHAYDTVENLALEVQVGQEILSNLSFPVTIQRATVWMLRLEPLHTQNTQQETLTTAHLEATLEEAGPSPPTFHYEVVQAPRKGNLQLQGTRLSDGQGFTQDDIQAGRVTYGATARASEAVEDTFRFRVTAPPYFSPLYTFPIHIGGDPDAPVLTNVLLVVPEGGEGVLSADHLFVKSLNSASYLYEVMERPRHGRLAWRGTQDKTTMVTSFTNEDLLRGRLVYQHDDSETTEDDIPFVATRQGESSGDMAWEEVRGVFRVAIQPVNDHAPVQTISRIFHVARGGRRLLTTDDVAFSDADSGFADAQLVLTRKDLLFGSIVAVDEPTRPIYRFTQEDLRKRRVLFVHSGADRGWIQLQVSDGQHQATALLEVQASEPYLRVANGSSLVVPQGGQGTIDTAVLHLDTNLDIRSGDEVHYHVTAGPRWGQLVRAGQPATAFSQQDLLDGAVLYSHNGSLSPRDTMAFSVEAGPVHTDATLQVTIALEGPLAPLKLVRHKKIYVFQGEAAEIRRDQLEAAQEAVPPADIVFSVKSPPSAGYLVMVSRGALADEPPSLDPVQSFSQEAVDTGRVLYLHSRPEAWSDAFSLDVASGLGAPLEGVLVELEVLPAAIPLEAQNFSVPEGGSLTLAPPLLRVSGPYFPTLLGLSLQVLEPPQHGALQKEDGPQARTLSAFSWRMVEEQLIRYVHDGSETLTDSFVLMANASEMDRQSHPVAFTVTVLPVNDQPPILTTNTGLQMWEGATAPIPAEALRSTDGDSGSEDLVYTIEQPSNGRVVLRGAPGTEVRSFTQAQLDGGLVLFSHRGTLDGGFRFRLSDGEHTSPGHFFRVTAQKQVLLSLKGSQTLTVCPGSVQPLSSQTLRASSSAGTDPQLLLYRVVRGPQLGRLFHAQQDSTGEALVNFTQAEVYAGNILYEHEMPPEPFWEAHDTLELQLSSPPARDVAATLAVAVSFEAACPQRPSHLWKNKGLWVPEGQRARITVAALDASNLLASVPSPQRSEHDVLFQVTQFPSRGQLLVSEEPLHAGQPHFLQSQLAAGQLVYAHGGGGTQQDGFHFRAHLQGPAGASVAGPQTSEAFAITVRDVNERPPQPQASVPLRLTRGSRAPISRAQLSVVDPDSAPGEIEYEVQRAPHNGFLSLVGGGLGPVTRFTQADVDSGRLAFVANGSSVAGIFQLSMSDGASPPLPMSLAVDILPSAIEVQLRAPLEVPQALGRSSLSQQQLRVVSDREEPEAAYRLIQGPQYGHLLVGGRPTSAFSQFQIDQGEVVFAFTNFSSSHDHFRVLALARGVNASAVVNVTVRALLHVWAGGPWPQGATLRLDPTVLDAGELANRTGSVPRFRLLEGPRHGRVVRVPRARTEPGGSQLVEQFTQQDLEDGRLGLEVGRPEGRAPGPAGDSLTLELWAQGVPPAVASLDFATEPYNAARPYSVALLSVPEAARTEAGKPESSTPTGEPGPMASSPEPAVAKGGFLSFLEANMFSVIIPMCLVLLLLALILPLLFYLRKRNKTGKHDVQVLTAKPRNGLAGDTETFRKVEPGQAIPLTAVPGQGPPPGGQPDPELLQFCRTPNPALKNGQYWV

B1: “2+1 IgG scFab, LALA” (anti-MCSP/anti-huCD3) (bispecific antibody)
chain 1: DIVLTQSPSSLSASLGDRVTISCSASQGIRNYLNWYQQRPDGTVKLLIYYTSSLHSGVPSRFSGSGSGTDYSLTISNLEPEDIATYYCQQYSKLPWTFGGGTKLEIKRTVAAPSVFIFPPSDEQLKSGTASVVCLLNNFYPREAKVQWKVDNALQSGNSQESVTEQDSKDSTYSLSSTLTLSKADYEKHKVYACEVTHQGLSSPVTKSFNRGEC
chain 2: not shown
chain 3: EVQLQESGPGLVKPSQSLSLTCSVTGYSITSGYYWNWIRQFPGNKLEWMGYITYDGSNNYNPSLKNRISITRDTSKNQFFLKLNSVTTEDTATYYCADFDYWGQGTTLTVSSASTKGPSVFPLAPSSKSTSGGTAALGCLVKDYFPEPVTVSWNSGALTSGVHTFPAVLQSSGLYSLSSVVTVPSSSLGTQTYICNVNHKPSNTKVDKKVEPKSCDKTHTCPPCPAPEAAGGPSVFLFPPKPKDTLMISRTPEVTCVVVDVSHEDPEVKFNWYVDGVEVHNAKTKPREEQYNSTYRVVSVLTVLHQDWLNGKEYKCKVSNKALPAPIEKTISKAKGQPREPQVCTLPPSRDELTKNQVSLSCAVKGFYPSDIAVEWESNGQPENNYKTTPPVLDSDGSFFLVSKLTVDKSRWQQGNVFSCSVMHEALHNHYTQKSLSLSPGK
notes: also called Fc-LALA; copies: 2 + 1 + 1
**Q.** What does the source list for B1?
**A.** EC50 (read off the curve) [1]: ~0.06 nM; Kd (HuFcγRIIIa-V158-K6H6): 2130 nM

B2: “2+1 IgG Crossfab, inverted”; CL/CH1 exchange (CH1A1A/V9) (anti-CEA/anti-huCD3) (bispecific antibody)
chain 1: QVQLVQSGAEVKKPGASVKVSCKASGYTFTEFGMNWVRQAPGQGLEWMGWINTKTGEATYVEEFKGRVTFTTDTSTSTAYMELRSLRSDDTAVYYCARWDFAYYVEAMDYWGQGTTVTVSSASTKGPSVFPLAPSSKSTSGGTAALGCLVKDYFPEPVTVSWNSGALTSGVHTFPAVLQSSGLYSLSSVVTVPSSSLGTQTYICNVNHKPSNTKVDKKVEPKSCDKTHTCPPCPAPEAAGGPSVFLFPPKPKDTLMISRTPEVTCVVVDVSHEDPEVKFNWYVDGVEVHNAKTKPREEQYNSTYRVVSVLTVLHQDWLNGKEYKCKVSNKALGAPIEKTISKAKGQPREPQVCTLPPSRDELTKNQVSLSCAVKGFYPSDIAVEWESNGQPENNYKTTPPVLDSDGSFFLVSKLTVDKSRWQQGNVFSCSVMHEALHNHYTQKSLSLSPGK
chain 2: DIQMTQSPSSLSASVGDRVTITCKASAAVGTYVAWYQQKPGKAPKLLIYSASYRKRGVPSRFSGSGSGTDFTLTISSLQPEDFATYYCHQYYTYPLFTFGQGTKLEIKRTVAAPSVFIFPPSDEQLKSGTASVVCLLNNFYPREAKVQWKVDNALQSGNSQESVTEQDSKDSTYSLSSTLTLSKADYEKHKVYACEVTHQGLSSPVTKSFNRGEC
chain 3: DIQMTQSPSSLSASVGDRVTITCRASQDIRNYLNWYQQKPGKAPKLLIYYTSRLESGVPSRFSGSGSGTDYTLTISSLQPEDFATYYCQQGNTLPWTFGQGTKVEIKSSASTKGPSVFPLAPSSKSTSGGTAALGCLVKDYFPEPVTVSWNSGALTSGVHTFPAVLQSSGLYSLSSVVTVPSSSLGTQTYICNVNHKPSNTKVDKKVEPKSC
chain 4: not shown
notes: also called CL/CH1-exchange construct
**Q.** With B2 as the binder, how does the “EC50 of killing (LDH release) of LS-174T cells, human PBMCs, E:T 10:1, 28 h” value [2] read?
**A.** Its value is 0.673 nM.

**Q.** What about the “EC50 of killing (LDH release) of MKN-45 cells, human PBMCs, E:T 10:1, 28 h” value [2] of the same binder?
**A.** The value was 0.115 nM.

**Q.** What about the EC50 [3] of the same binder?
**A.** The EC50 was 3.9 nM.

**Q.** What about the EC50 [4] of the same binder?
**A.** The EC50 was 6.7 nM.

B3: “2+1 IgG Crossfab, inverted”; VL/VH exchange (CH1A1A/V9) (anti-CEA/anti-huCD3) (bispecific antibody)
chain 1: EVQLVESGGGLVQPGGSLRLSCAASGYSFTGYTMNWVRQAPGKGLEWVALINPYKGVSTYNQKFKDRFTISVDKSKNTAYLQMNSLRAEDTAVYYCARSGYYGDSDWYFDVWGQGTLVTVSSASVAAPSVFIFPPSDEQLKSGTASVVCLLNNFYPREAKVQWKVDNALQSGNSQESVTEQDSKDSTYSLSSTLTLSKADYEKHKVYACEVTHQGLSSPVTKSFNRGEC
chain 2: not shown
chain 3: QVQLVQSGAEVKKPGASVKVSCKASGYTFTEFGMNWVRQAPGQGLEWMGWINTKTGEATYVEEFKGRVTFTTDTSTSTAYMELRSLRSDDTAVYYCARWDFAYYVEAMDYWGQGTTVTVSSASTKGPSVFPLAPSSKSTSGGTAALGCLVKDYFPEPVTVSWNSGALTSGVHTFPAVLQSSGLYSLSSVVTVPSSSLGTQTYICNVNHKPSNTKVDKKVEPKSCDKTHTCPPCPAPEAAGGPSVFLFPPKPKDTLMISRTPEVTCVVVDVSHEDPEVKFNWYVDGVEVHNAKTKPREEQYNSTYRVVSVLTVLHQDWLNGKEYKCKVSNKALGAPIEKTISKAKGQPREPQVCTLPPSRDELTKNQVSLSCAVKGFYPSDIAVEWESNGQPENNYKTTPPVLDSDGSFFLVSKLTVDKSRWQQGNVFSCSVMHEALHNHYTQKSLSLSPGK
chain 4: DIQMTQSPSSLSASVGDRVTITCKASAAVGTYVAWYQQKPGKAPKLLIYSASYRKRGVPSRFSGSGSGTDFTLTISSLQPEDFATYYCHQYYTYPLFTFGQGTKLEIKRTVAAPSVFIFPPSDEQLKSGTASVVCLLNNFYPREAKVQWKVDNALQSGNSQESVTEQDSKDSTYSLSSTLTLSKADYEKHKVYACEVTHQGLSSPVTKSFNRGEC
notes: also called VL/VH-exchange construct
**Q.** For B3, which “EC50 of killing (LDH release) of LS-174T cells, human PBMCs, E:T 10:1, 28 h” value [2] is on record?
**A.** Its value is 0.955 nM.

**Q.** And the “EC50 of killing (LDH release) of MKN-45 cells, human PBMCs, E:T 10:1, 28 h” value [2]?
**A.** Its value is 0.243 nM.

**Q.** What about the EC50 [5] of the same binder?
**A.** Its EC50 is 4.6 nM.

**Q.** What about the EC50 [6] of the same binder?
**A.** The EC50 was 9.3 nM.
